Here are results for 13 molecules from patent publication US20130045895A1 (published 2013).

B1: DOM7h-14 A43C (other)
VL: DIQMTQSPSSLSASVGDRVTITCRASQWIGSQLSWYQQKPGKCPKLLIMWRSSLQSGVPSRFSGSGSGTDFTLTISSLQPEDFATYYCAQGAALPRTFGQGTKVEIKR
B2: DOM7h-14 A43N (other)
VL: DIQMTQSPSSLSASVGDRVTITCRASQWIGSQLSWYQQKPGKNPKLLIMWRSSLQSGVPSRFSGSGSGTDFTLTISSLQPEDFATYYCAQGAALPRTFGQGTKVEIKR
B3: DOM7h-14 A43I (other)
VL: DIQMTQSPSSLSASVGDRVTITCRASQWIGSQLSWYQQKPGKIPKLLIMWRSSLQSGVPSRFSGSGSGTDFTLTISSLQPEDFATYYCAQGAALPRTFGQGTKVEIKR
B4: DOM7h-14 A43M (other)
VL: DIQMTQSPSSLSASVGDRVTITCRASQWIGSQLSWYQQKPGKMPKLLIMWRSSLQSGVPSRFSGSGSGTDFTLTISSLQPEDFATYYCAQGAALPRTFGQGTKVEIKR
B5: DOM7h-14 A43G (other)
VL: DIQMTQSPSSLSASVGDRVTITCRASQWIGSQLSWYQQKPGKGPKLLIMWRSSLQSGVPSRFSGSGSGTDFTLTISSLQPEDFATYYCAQGAALPRTFGQGTKVEIKR
B6: DOM7h-14 A43R (other)
VL: DIQMTQSPSSLSASVGDRVTITCRASQWIGSQLSWYQQKPGKRPKLLIMWRSSLQSGVPSRFSGSGSGTDFTLTISSLQPEDFATYYCAQGAALPRTFGQGTKVEIKR
B7: DOM7h-14 A43F (other)
VL: DIQMTQSPSSLSASVGDRVTITCRASQWIGSQLSWYQQKPGKFPKLLIMWRSSLQSGVPSRFSGSGSGTDFTLTISSLQPEDFATYYCAQGAALPRTFGQGTKVEIKR
B8: DOM7h-14 A43S (other)
VL: DIQMTQSPSSLSASVGDRVTITCRASQWIGSQLSWYQQKPGKSPKLLIMWRSSLQSGVPSRFSGSGSGTDFTLTISSLQPEDFATYYCAQGAALPRTFGQGTKVEIKR
B9: DOM7h-14 A43K (other)
VL: DIQMTQSPSSLSASVGDRVTITCRASQWIGSQLSWYQQKPGKKPKLLIMWRSSLQSGVPSRFSGSGSGTDFTLTISSLQPEDFATYYCAQGAALPRTFGQGTKVEIKR
B10: DOM7h-14 A43H (other)
VL: DIQMTQSPSSLSASVGDRVTITCRASQWIGSQLSWYQQKPGKHPKLLIMWRSSLQSGVPSRFSGSGSGTDFTLTISSLQPEDFATYYCAQGAALPRTFGQGTKVEIKR
B11: DOM7h-14 A43E (other)
VL: DIQMTQSPSSLSASVGDRVTITCRASQWIGSQLSWYQQKPGKEPKLLIMWRSSLQSGVPSRFSGSGSGTDFTLTISSLQPEDFATYYCAQGAALPRTFGQGTKVEIKR
B12: DOM7h-14 A43L (other)
VL: DIQMTQSPSSLSASVGDRVTITCRASQWIGSQLSWYQQKPGKLPKLLIMWRSSLQSGVPSRFSGSGSGTDFTLTISSLQPEDFATYYCAQGAALPRTFGQGTKVEIKR
B13: DOM7h-14 A43P (other)
VL: DIQMTQSPSSLSASVGDRVTITCRASQWIGSQLSWYQQKPGKPPKLLIMWRSSLQSGVPSRFSGSGSGTDFTLTISSLQPEDFATYYCAQGAALPRTFGQGTKVEIKR

T1 sequence (P02768 25-609 limits assumed): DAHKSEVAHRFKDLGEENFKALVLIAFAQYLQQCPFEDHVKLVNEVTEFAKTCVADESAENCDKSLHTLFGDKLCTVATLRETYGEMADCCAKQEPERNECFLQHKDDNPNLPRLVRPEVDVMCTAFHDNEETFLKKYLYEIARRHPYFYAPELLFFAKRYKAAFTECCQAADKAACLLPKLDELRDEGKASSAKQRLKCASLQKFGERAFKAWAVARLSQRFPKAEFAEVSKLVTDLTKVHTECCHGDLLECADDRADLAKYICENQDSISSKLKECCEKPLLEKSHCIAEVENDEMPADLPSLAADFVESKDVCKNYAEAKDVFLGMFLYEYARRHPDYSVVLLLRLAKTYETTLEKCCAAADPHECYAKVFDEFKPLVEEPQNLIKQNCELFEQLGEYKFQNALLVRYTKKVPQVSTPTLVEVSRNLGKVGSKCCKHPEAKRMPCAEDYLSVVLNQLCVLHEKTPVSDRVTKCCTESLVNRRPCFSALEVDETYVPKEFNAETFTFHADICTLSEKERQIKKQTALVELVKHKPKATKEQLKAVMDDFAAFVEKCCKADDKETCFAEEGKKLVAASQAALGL

This assay concerns the target T1, Human Serum Albumin (human, UniProt P02768 25-609).
T1 construct: also called HSA; antigen
The assay is described as follows: BIAcore, supernatant over immobilised HSA (6036 RU).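 Also: expressed culture supernatants of mutant clones diluted 1:1 in HBS-EP buffer and screened for binding.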 Background: Surface plasmon resonance follows binding to a sensor surface in real time, without labels.
Experimental: Screening of expressed supernatants for Protein L and HSA binding: Mutant clones were picked into a 96 well plate format and expressed in 1 mL 2×TY 0.1 mg/ml carbenicillin supplemented with OnEx solutions 1, 2 and 3 according to the manufacturer's instructions (Novagen). Cultures were grown at 30° C. for 3 days at 950 rpm high humidity in an InforsHT shaker. Cells were pelleted by centrifugation (4.5 k in a bench top Sorvall centrifuge for 30 mins) and 75 μL of the supernatant added to an equal volume of HBS-EP buffer (GE Healthcare).
Consider B1, for which the binding result is on record as “binds”. The value for B2 was “binds”; that for B3 was “binds”. Consider B4, for which the binding result is listed as “binds”. The value for B5 was “binds”. Take B6: the binding result is reported as “binds”. With B7 the entry was “binds”.

As to B8, the binding result is listed as “binds”.

For B9, the binding result is “binds”. Regarding B10, the binding result is given as “binds”. The value for B11 was “binds”; that for B12 was “binds”; that for B13 was “binds”.
